Test results from patent publication US20160319027A1.

Molecular target: human TrkA on TF-1 cells (human), P04629
Assay: cell-based or functional assay

Sequence of human TrkA on TF-1 cells (human), P04629 (P04629 33-796): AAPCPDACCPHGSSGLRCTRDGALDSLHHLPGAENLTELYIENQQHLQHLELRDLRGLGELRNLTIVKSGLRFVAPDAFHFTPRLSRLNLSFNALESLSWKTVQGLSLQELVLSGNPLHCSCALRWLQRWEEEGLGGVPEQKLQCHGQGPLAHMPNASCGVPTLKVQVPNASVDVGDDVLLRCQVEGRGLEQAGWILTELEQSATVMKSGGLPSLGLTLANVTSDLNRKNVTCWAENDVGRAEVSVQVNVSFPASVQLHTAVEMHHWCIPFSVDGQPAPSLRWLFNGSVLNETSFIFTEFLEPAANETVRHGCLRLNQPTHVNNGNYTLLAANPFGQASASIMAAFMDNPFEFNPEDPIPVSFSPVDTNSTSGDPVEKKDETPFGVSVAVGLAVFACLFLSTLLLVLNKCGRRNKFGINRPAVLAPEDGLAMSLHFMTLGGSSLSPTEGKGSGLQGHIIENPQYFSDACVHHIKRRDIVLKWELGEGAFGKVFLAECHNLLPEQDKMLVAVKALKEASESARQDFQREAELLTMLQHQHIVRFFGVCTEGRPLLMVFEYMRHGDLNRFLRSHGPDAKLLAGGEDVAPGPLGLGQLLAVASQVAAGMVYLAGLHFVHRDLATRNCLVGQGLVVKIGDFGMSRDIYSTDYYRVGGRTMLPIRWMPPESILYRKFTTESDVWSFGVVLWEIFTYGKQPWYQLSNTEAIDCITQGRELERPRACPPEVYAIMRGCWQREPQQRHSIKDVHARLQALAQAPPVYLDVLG

B1: MNAC13 mouse antibody (antibody, mouse IgG1, kappa)
heavy: EVKLVESGGGLVQPGGSLKLSCAASGFTFSTYTMSWARQTPEKRLEWVAYISKGGGSTYYPDTVKGRFTISRDNAKNTLYLQMSSLKSEDTALYYCARGAMYGNDFFYPMDYWGQGTSVTVSSKTTPPSVYPLAPGSAAQTNSMVTLGCLVKGYFPEPVTVTWNSGSLSSGVHTFPAVLESDLYTLSSSVTVPSSPRPSETVTCNVAHPASSTKVDKKIVPRDCGCKPCICTVPEVSSVFIFPPKPKDVLTITLTPKVTCVVVDISKDDPEVQFSWFVDDVEVHTAQTQPREEQFNSTFRSVSELPIMHQDWLNGKEFKCRVNSAAFPAPIEKTISKTKGRPKAPQVYTIPPPKEQMAKDKVSLTCMITDFFPEDITVEWQWNGQPAENYKNTQPIMNTNGSYFVYSKLNVQKSNWEAGNTFTCSVLHEGLHNHHTEKSLSHSPGK
light: QIVLTQSPAIMSASLGEEITLTCSASSSVSYMHWYQQKSGTSPKLLIYTTSNLASGVPSRFSGSGSGTFYSLTISSVEAEDAADYYCHQWSSYPWTFGGGTKLEIKADAAPTVSIFPPSSEQLTSGGASVVCFLNNFYPKDINVKWKIDGSERQNGVLNSWTDQDSKDSTYSMSSTLTLTKDEYERHNSYTCEATHKTSTSPIVKSFNRNEC
With B1 the TF-1 cell proliferation assay IC50 (5 ng/ml human beta-NGF) was 0.23 µg/mL.
